Measured values from patent publication US6485937.

Biological target: FLAG-epitope tagged HIV tat interacting protein of 30 kDa (f-TIP30) (human (isolated from HeLa cells)) (UniProt Q9BUP3)
Experiment: affinity chromatography of B. mori fat bodies extract, SDS-PAGE of the unbound fraction; the filing puts this down to saturated beads

Sequence of UniProt Q9BUP3 (Q9BUP3 other isoform, or with tags, fused parts or gaps limits assumed): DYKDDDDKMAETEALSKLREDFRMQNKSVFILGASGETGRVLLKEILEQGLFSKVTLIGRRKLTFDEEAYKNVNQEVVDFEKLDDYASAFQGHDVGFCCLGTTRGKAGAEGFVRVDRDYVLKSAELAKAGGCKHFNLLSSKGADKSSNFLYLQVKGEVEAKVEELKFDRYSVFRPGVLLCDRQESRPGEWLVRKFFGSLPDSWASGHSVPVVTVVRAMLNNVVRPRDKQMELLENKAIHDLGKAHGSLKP

share of expressed protein remaining in the unbound fraction: > 30%
Substance: M2-Agarose resin (Sigma) (antibody)
